*1 amine or outer side, *2 acyl side, *3 side chain or, on linkers, in order; H or OH if unused. Where a SMILES comes first, the peptide text is derived from it. Where no end group is shown, it is not given here. Side-chain parts run from the residue outwards. [ ]: non-standard residue; d: D form. The star is where a group is joined. C20 diacid = O=C(O)CCCCCCCCCCCCCCCCCCC(=O)*; γGlu = O=C(O)[C@H](CCC(=O)[*:2])N[*:1]; εLys = N[C@@H](CCCCN[*:1])C(=O)[*:2]; AEEA = NCCOCCOCC(=O)O; Aib = CC(C)(N)C(=O)O
What was measured:
human GIP receptor = molecular target: T1, human GIP receptor (Homo sapiens, UniProt P48546); assay: In vitro functional potency (CRE luciferase; whole cells), human GIPR; assay type: cell-based; details: BHK CRE luc2P hGIPR whole cells; Table 2; read-out: hGIPR CRE Luc EC50
T1 construct: expressed in transfected cells; host or cells: BHK cells (parent line BHKTS13) containing CRE luciferase
T1 sequence (P48546 22-466): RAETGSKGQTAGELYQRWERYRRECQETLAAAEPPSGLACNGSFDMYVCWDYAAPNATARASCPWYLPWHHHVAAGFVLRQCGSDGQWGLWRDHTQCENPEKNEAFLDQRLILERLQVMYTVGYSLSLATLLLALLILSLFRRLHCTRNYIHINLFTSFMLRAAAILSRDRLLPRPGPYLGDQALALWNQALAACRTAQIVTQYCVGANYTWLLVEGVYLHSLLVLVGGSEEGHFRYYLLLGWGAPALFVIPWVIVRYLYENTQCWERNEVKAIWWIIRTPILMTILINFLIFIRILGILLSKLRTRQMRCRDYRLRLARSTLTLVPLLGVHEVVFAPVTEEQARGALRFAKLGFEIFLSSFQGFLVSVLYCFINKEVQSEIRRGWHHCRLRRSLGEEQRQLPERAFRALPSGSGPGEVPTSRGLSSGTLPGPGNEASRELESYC

[1] = Pharmacokinetic study in minipigs, i.v. administration; parameters: species or system Göttingen minipigs; details: female, Göttingen, minipig, in vivo, iv
Procedure, shortened: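 Terminal half-life, reported as harmonic mean, came from non-compartmental fits of plasma levels measured by antibody assay or LCMS over up to 14 days. Dosing was i.v., typically 1.5-2 nmol/kg, through implanted caval catheters in fasted female Göttingen minipigs of 16-35 kg.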

human GLP-1 receptor = molecular target: T2, human GLP-1 receptor (Homo sapiens, UniProt P43220); assay: In vitro functional potency (CRE luciferase; whole cells), human GLP-1R; assay type: cell-based; details: BHK CRE luc2P hGLP-1R whole cells; Table 2; read-out: hGLP-1R CRE Luc EC50
T2 construct: expressed in transfected cells; host or cells: BHK cells (parent line BHKTS13) containing CRE luciferase

human glucagon receptor = human glucagon receptor (human, UniProt P47871 26-477); assay: cell-based or functional assay
[2] = molecular target: T3, human glucose-dependent insulinotropic polypeptide receptor (human, UniProt P48546 22-466); assay: cell-based or functional assay
T3 sequence (looked up): T1 sequence (P48546 22-466)

[3] = molecular target: human glucagon-like peptide 1 receptor (human, UniProt P43220 24-463); assay: cell-based or functional assay

T2 sequence (P43220 24-463): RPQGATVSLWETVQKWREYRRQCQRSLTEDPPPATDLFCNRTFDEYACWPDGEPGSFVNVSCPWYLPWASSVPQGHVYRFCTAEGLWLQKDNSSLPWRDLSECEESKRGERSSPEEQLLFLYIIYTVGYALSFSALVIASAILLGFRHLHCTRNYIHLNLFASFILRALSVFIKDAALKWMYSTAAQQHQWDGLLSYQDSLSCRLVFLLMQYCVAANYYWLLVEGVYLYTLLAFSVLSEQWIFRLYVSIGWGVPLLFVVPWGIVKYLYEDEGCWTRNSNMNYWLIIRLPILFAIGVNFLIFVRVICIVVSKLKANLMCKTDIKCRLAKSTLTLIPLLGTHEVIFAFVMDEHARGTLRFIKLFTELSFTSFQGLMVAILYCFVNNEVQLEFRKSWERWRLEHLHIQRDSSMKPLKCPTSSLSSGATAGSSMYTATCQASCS
Sequence of human glucagon receptor (P47871 26-477): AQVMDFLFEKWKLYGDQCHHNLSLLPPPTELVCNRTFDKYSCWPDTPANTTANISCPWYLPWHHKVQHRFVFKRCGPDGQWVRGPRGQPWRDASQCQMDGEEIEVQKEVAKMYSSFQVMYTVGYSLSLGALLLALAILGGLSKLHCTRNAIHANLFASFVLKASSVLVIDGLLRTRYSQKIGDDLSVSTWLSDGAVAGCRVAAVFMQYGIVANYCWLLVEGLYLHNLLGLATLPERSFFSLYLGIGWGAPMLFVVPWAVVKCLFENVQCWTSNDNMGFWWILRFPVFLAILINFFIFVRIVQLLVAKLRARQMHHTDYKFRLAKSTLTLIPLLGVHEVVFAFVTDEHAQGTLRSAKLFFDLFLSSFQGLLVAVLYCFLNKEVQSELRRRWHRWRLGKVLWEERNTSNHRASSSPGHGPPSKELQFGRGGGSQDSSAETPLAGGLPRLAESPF

CC[C@H](C)[C@H](NC(=O)[C@H](CO)NC(=O)[C@H](Cc1ccc(O)cc1)NC(=O)[C@H](CC(=O)O)NC(=O)[C@H](CO)NC(=O)[C@@H](NC(=O)[C@H](Cc1ccccc1)NC(=O)[C@@H](NC(=O)CNC(=O)[C@H](Cc1c[nH]cn1)NC(=O)C(C)(C)NC(=O)[C@@H](N)Cc1c[nH]cn1)[C@@H](C)O)[C@@H](C)O)C(=O)N[C@@H](Cc1ccc(O)cc1)C(=O)N[C@@H](CC(C)C)C(=O)N[C@@H](CCC(=O)O)C(=O)N[C@@H](CCCCNC(=O)[C@@H](N)CCCCNC(=O)[C@@H](N)CCCCNC(=O)CC[C@H](NC(=O)CCCCCCCCCCCCCCCCCCC(=O)O)C(=O)O)C(=O)N[C@@H](CCC(N)=O)C(=O)N[C@@H](Cc1ccc(O)cc1)C(=O)N[C@@H](C)C(=O)NC(C)(C)C(=O)N[C@@H](CCC(=O)O)C(=O)N[C@@H](Cc1ccccc1)C(=O)N[C@H](C(=O)N[C@@H](CCC(N)=O)C(=O)N[C@@H](Cc1c[nH]c2ccccc12)C(=O)N[C@@H](CC(C)C)C(=O)N[C@@H](CC(C)C)C(=O)N[C@@H](CCC(=O)O)C(=O)NCC(=O)NCC(=O)N1CCC[C@H]1C(=O)N[C@@H](CO)C(=O)N[C@@H](CO)C(=O)NCC(=O)N[C@@H](C)C(=O)N1CCC[C@H]1C(=O)N1CCC[C@H]1C(=O)N1CCC[C@H]1C(=O)N[C@@H](CO)C(N)=O)C(C)C [Compound No. 24] (H-H[Aib]HGTFTSDYSIYLEK([εLys-εLys-γGlu-C20 diacid])QYA[Aib]EFVQWLLEGGPSSGAPPPS-NH2) gave an EC50 (human GIP receptor) of 7.7 pM and a half-life [1] of 82 h.

Work on CC(C)C[C@H](NC(=O)[C@H](CC(C)C)NC(=O)[C@H](Cc1c[nH]c2ccccc12)NC(=O)[C@H](CCC(N)=O)NC(=O)[C@@H](NC(=O)[C@H](Cc1ccccc1)NC(=O)[C@H](CCC(=O)O)NC(=O)C(C)(C)NC(=O)[C@H](C)NC(=O)[C@H](C)NC(=O)[C@H](CCC(N)=O)NC(=O)[C@H](CCCCNC(=O)[C@@H](N)CCCCNC(=O)[C@@H](N)CCCCNC(=O)CC[C@H](NC(=O)CCCCCCCCCCCCCCCCCCC(=O)O)C(=O)O)NC(=O)[C@H](CCC(=O)O)NC(=O)[C@H](CC(C)C)NC(=O)[C@H](Cc1ccc(O)cc1)NC(=O)[C@H](CCCCN)NC(=O)[C@H](CO)NC(=O)[C@H](Cc1ccc(O)cc1)NC(=O)[C@H](CC(=O)O)NC(=O)[C@H](CO)NC(=O)[C@@H](NC(=O)[C@H](Cc1ccccc1)NC(=O)[C@@H](NC(=O)CNC(=O)[C@H](Cc1c[nH]cn1)NC(=O)C(C)(C)NC(=O)[C@@H](N)Cc1c[nH]cn1)[C@@H](C)O)[C@@H](C)O)C(C)C)C(=O)N[C@@H](CCC(=O)O)C(=O)NCC(=O)NCC(=O)N1CCC[C@H]1C(=O)N[C@@H](CO)C(=O)N[C@@H](CO)C(=O)NCC(=O)N[C@@H](C)C(=O)N1CCC[C@H]1C(=O)N1CCC[C@H]1C(=O)N1CCC[C@H]1C(=O)N[C@@H](CO)C(N)=O [Compound No. 36] (H-H[Aib]HGTFTSDYSKYLEK([εLys-εLys-γGlu-C20 diacid])QAA[Aib]EFVQWLLEGGPSSGAPPPS-NH2) yielded an EC50 (human GIP receptor) of 9.3 pM and an EC50 (human GLP-1 receptor) of 1.8 pM.

Work on CC[C@H](C)[C@H](NC(=O)[C@H](CO)NC(=O)[C@H](Cc1ccc(O)cc1)NC(=O)[C@H](CC(=O)O)NC(=O)[C@H](CO)NC(=O)[C@@H](NC(=O)[C@H](Cc1ccccc1)NC(=O)[C@@H](NC(=O)CNC(=O)[C@H](Cc1c[nH]cn1)NC(=O)C(C)(C)NC(=O)[C@@H](N)Cc1c[nH]cn1)[C@@H](C)O)[C@@H](C)O)C(=O)N[C@@H](CC(C)C)C(=O)N[C@@H](CC(C)C)C(=O)N[C@@H](CCC(=O)O)C(=O)N[C@@H](CCCCNC(=O)[C@@H](N)CCCCNC(=O)[C@@H](N)CCCCNC(=O)CC[C@H](NC(=O)CCCCCCCCCCCCCCCCCCC(=O)O)C(=O)O)C(=O)N[C@@H](CCCCN)C(=O)N[C@@H](Cc1ccc(O)cc1)C(=O)N[C@@H](C)C(=O)NC(C)(C)C(=O)N[C@@H](CCC(=O)O)C(=O)N[C@@H](Cc1ccccc1)C(=O)N[C@H](C(=O)N[C@@H](CCC(N)=O)C(=O)N[C@@H](Cc1c[nH]c2ccccc12)C(=O)N[C@@H](CC(C)C)C(=O)N[C@@H](CC(C)C)C(=O)N[C@@H](CCC(=O)O)C(=O)NCC(=O)NCC(=O)N1CCC[C@H]1C(=O)N[C@@H](CO)C(=O)N[C@@H](CO)C(=O)NCC(=O)N[C@@H](C)C(=O)N1CCC[C@H]1C(=O)N1CCC[C@H]1C(=O)N1CCC[C@H]1C(=O)N[C@@H](CO)C(N)=O)C(C)C [Compound No. 41] (H-H[Aib]HGTFTSDYSILLEK([εLys-εLys-γGlu-C20 diacid])KYA[Aib]EFVQWLLEGGPSSGAPPPS-NH2) yielded an EC50 (human GIP receptor) of 9.3 pM, an EC50 (human GLP-1 receptor) of 4.3 pM and a half-life [1] of 69 h.

For CC[C@H](C)[C@H](NC(=O)[C@H](CO)NC(=O)[C@H](Cc1ccc(O)cc1)NC(=O)[C@H](CC(=O)O)NC(=O)[C@H](CO)NC(=O)[C@@H](NC(=O)[C@H](Cc1ccccc1)NC(=O)[C@@H](NC(=O)CNC(=O)[C@H](Cc1c[nH]cn1)NC(=O)C(C)(C)NC(=O)[C@@H](N)Cc1c[nH]cn1)[C@@H](C)O)[C@@H](C)O)C(=O)N[C@@H](CC(C)C)C(=O)N[C@@H](CC(C)C)C(=O)N[C@@H](CCC(=O)O)C(=O)N[C@@H](CCCCNC(=O)COCCOCCNC(=O)COCCOCCNC(=O)CC[C@H](NC(=O)CCCCCCCCCCCCCCCCCCC(=O)O)C(=O)O)C(=O)N[C@@H](CCC(N)=O)C(=O)N[C@@H](C)C(=O)N[C@@H](C)C(=O)NC(C)(C)C(=O)N[C@@H](CCC(=O)O)C(=O)N[C@@H](Cc1ccccc1)C(=O)N[C@H](C(=O)N[C@@H](CCC(N)=O)C(=O)N[C@@H](Cc1c[nH]c2ccccc12)C(=O)N[C@@H](CC(C)C)C(=O)N[C@@H](CC(C)C)C(=O)N[C@@H](CCC(=O)O)C(=O)NCC(=O)NCC(=O)N1CCC[C@H]1C(=O)N[C@@H](CO)C(=O)N[C@@H](CO)C(=O)NCC(=O)N[C@@H](C)C(=O)N1CCC[C@H]1C(=O)N1CCC[C@H]1C(=O)N1CCC[C@H]1C(=O)N[C@@H](CO)C(N)=O)C(C)C [Compound No. 45] (H-H[Aib]HGTFTSDYSILLEK([AEEA-AEEA-γGlu-C20 diacid])QAA[Aib]EFVQWLLEGGPSSGAPPPS-NH2; N-terminus assumed), the EC50 (human GIP receptor) was 1.9 pM and the EC50 (human GLP-1 receptor) was 2.4 pM.

In the case of CC[C@H](C)[C@H](NC(=O)[C@H](CO)NC(=O)[C@H](Cc1ccc(O)cc1)NC(=O)[C@H](CC(=O)O)NC(=O)[C@H](CO)NC(=O)[C@@H](NC(=O)[C@H](Cc1ccccc1)NC(=O)[C@@H](NC(=O)CNC(=O)[C@H](Cc1c[nH]cn1)NC(=O)C(C)(C)NC(=O)[C@@H](N)Cc1c[nH]cn1)[C@@H](C)O)[C@@H](C)O)C(=O)N[C@@H](CC(C)C)C(=O)N[C@@H](CC(C)C)C(=O)N[C@@H](CCC(=O)O)C(=O)N[C@@H](CCCCNC(=O)[C@@H](N)CCCCNC(=O)[C@@H](N)CCCCNC(=O)CC[C@H](NC(=O)CCCCCCCCCCCCCCCCCCC(=O)O)C(=O)O)C(=O)N[C@@H](CCC(N)=O)C(=O)N[C@@H](C)C(=O)N[C@@H](C)C(=O)N[C@@H](CCC(=O)O)C(=O)N[C@@H](CCC(=O)O)C(=O)N[C@@H](Cc1ccccc1)C(=O)N[C@H](C(=O)N[C@@H](CCC(N)=O)C(=O)N[C@@H](Cc1c[nH]c2ccccc12)C(=O)N[C@@H](CC(C)C)C(=O)N[C@@H](CC(C)C)C(=O)N[C@@H](CCC(=O)O)C(=O)NCC(=O)NCC(=O)N1CCC[C@H]1C(=O)N[C@@H](CO)C(=O)N[C@@H](CO)C(=O)NCC(=O)N[C@@H](C)C(=O)N1CCC[C@H]1C(=O)N1CCC[C@H]1C(=O)N1CCC[C@H]1C(=O)N[C@@H](CO)C(N)=O)C(C)C [Compound No. 49] (H-H[Aib]HGTFTSDYSILLEK([εLys-εLys-γGlu-C20 diacid])QAAEEFVQWLLEGGPSSGAPPPS-NH2), the EC50 (human GIP receptor) is reported as 2.1 pM and the EC50 (human GLP-1 receptor) is reported as 1.4 pM.

B1: Compound No. 60 (peptide)
peptide: Y[Aib]QGTFTSDYSIYLDKQAAKEFVNWLLAGGPSSGAPPPS-NH2
modifications: not fully specified (residue 20); printed as Y-Aib-QGTFTSDYSIYLDKQAA-K[2-[2-[2-[[2-[2-[2-[[(4S)-4-carboxy-4-(17-carboxyheptadecanoylamino)butanoyl]amino]ethoxy]ethoxy]acetyl]amino]ethoxy]ethoxy]acetyl]-EFVNWLLAGGPSSGAPPPS-NH2
For B1, the “hGcgR CRE Luc EC50 (pM)” value (human glucagon receptor) was 182 pM, the “hGIPR CRE Luc EC50 (pM)” value [2] was 416 pM and the “hGLP-1R CRE Luc EC50 (pM)” value [3] was 14.9 pM.

In the case of Y[Aib]QGTFTSDYSIYLDKQAA[Aib]EFVKWLLAGGPSSGAPPPS-NH2 (not fully specified (residue 24)) [Compound No. 64], the “hGcgR CRE Luc EC50 (pM)” value (human glucagon receptor) is reported as 464 pM, the “hGIPR CRE Luc EC50 (pM)” value [2] is reported as 174 pM and the “hGLP-1R CRE Luc EC50 (pM)” value [3] is reported as 45.4 pM.

In the case of Y[Aib]QGTFTSDYSIYKDKQAA[Aib]EFVNWLLAGGPSSGAPPPS-NH2 (not fully specified (residue 14)) [Compound No. 63], the “hGcgR CRE Luc EC50 (pM)” value (human glucagon receptor) is reported as 1110 pM, the “hGIPR CRE Luc EC50 (pM)” value [2] is reported as 175 pM and the “hGLP-1R CRE Luc EC50 (pM)” value [3] is reported as 25 pM.

With Y[Aib]QGTFTSDYSIKLDKQAA[Aib]EFVNWLLAGGPSSGAPPPS-NH2 (not fully specified (residue 13)) [Compound No. 62] the “hGcgR CRE Luc EC50 (pM)” value (human glucagon receptor) was 891 pM, the “hGIPR CRE Luc EC50 (pM)” value [2] was 65 pM and the “hGLP-1R CRE Luc EC50 (pM)” value [3] was 36 pM.

— patent US20230391845A1, “GLP-1, GIP AND GLUCAGON RECEPTOR TRIPLE AGONISTS” (priority 2020, published 2023)
